Patent US12648985B2, “Immunotherapeutic for prostate cancer treatment” (Hexamer Therapeutics, Inc., priority 2019, dated 2026)
Entries after “also recorded” stand apart in the source; their conditions may differ.

How the values were obtained:
[1] = tested on: GnRH; assay: anti-GnRH IgG endpoint titers by ELISA in sera of immunized mice; assay type: in vivo; conditions: BALB/cJ mice
Protocol: B-cell function: Standard ELISA was used to measure therapeutic efficacy by GnRH-specific antibody titer in the collected mouse sera. ELISA plates were coated with GnRH-BSA conjugate and 8 sequential 10-fold dilutions (from 1:10^3 to 1:10^10) of sera in blocking buffer were made and added to the ELISA plate wells. An HRP-labeled anti-mouse secondary antibody was added and the plates developed with a colorimetric substrate and measured in an ELISA plate reader. Data were plotted, curve fitted, and statistically analyzed using Prism Graph Pad software for calculating mid- and end-point titers.
(§1) Constructs 1-7 (1 and 10 ug) were adjuvanted with a monophosphoryl lipid-A/squalene-based adjuvant and injected into BALB/cJ mice. Each construct is injected into 5 mice (n=5 per construct). After 14, 28, and 42 days, mouse sera were obtained to measure anti-GnRH IgG endpoint titers by ELISA using dilutions from […] (sequential 10-fold dilutions). […] Testosterone was extracted from the sera, derivatized, and separated and quantified by LC-MS/MS.
The solid line in the group of dots is the geometric mean and the error bars are the geometric standard deviation. Two doses were chosen for this study: 1 and 10 ug. IgG titers reached maximum levels 42 days following prime immunization.

[2] = tested on: testosterone; assay: serum testosterone by LC-MS/MS in immunized mice; assay type: in vivo; conditions: BALB/cJ mice
Protocol: as §1
A castrate T level is shown by the dotted line.

| Molecule | anti-GnRH IgG antibody titers, rank among the constructs ([1]; FIG. 3) | anti-GnRH IgG antibody titers, 1 ug versus 10 ug dose ([1]; 1 and 10 ug, monophosphoryl lipid-A/squalene-based adjuvant, FIG. 3) | anti-GnRH IgG antibody titers, rank among the constructs ([1]; FIG. 3, listed as TCE3-Hex-TCE4+GnRH) | inducing IgG titers compared with KLH+GnRH (positive control) ([1]; FIGS. 4-6) | anti-GnRH IgG titers, d28 versus d42 ([1]; days post-prime immunization, FIG. 3) | inducing castrate levels of T compared with KLH+GnRH (positive control) ([2]; FIGS. 4-6) | testosterone (T) levels induced ([2]; by d42, FIG. 6) |
| --- | --- | --- | --- | --- | --- | --- | --- |
| construct 5: scaffold peptide (SEQ ID NO: 67): GnRH peptide and TCE2 at N- and C-terminus of the monomeric peptide, self-assembled (also: self-assembled) GQHWSYGLRPGGDIRSIGKEIRSIGREIKSIGREIRSIGRGPGPFNNFTVSFWLRVPRVSASHLEQY | highest titers or induced high titers sooner |  |  |  |  |  |  |
| construct 2: GnRH peptide immunogen (SEQ ID NO: 70) conjugated to the TCE3-Hex-TCE4 hexamer scaffold peptide (SEQ ID NO: 68) (conjugate, conjugated; GnRH; TCE3_Hex_TCE4) chain 1: QHWSYGLRPGDGEGC chain 2: GQEAFSHIRIPLPHDIRSIGKEIRSIGREIRSIGKEIRSIGREFQDAYNAAGGHNAVF |  | equal antibody titers at both 1 and 10 ug | highest antibody titers; also recorded: highest titers or induced high titers sooner | about the same as KLH+GnRH | almost equal levels between d28 and d42 | about the same as KLH+GnRH | castrate levels of T |
